B1: Isoform 2 of Bardet-Biedl syndrome 7 protein (Homo sapiens), Q8IWZ6-2 (parent)
chain: MDLILNRMDYLQVGVTSQKTMKLIPASRHRATQKVVIGDHDGVVMCFGMKKGEAAAVFKTLPGPKIARLELGGVINTPQEKIFIAAASEIRGFTKRGKQFLSFETNLTESIKAMHISGSDLFLSASYIYNHYCDCKDQHYYLSGDKINDVICLPVERLSRITPVLACQDRVLRVLQGSDVMYAVEVPGPPTVLALHNGNGGDSGEDLLFGTSDGKLALIQITTSKPVRKWEIQNEKKRGGILCIDSFDIVGDGVKDLLVGRDDGMVEVYSFDNANEPVLRFDQMLSESVTSIQGGCVGKDSYDEIVVSTYSGWVTGLTTEPIHKESGPGEELKINQEMQNKISSLRNELEHLQYKVLQERENYQQSSQSSKAKSAVPSFGINDKFTLNKDDASYSLILEVQTAIDNVLIQSDVPIDLLDVDKNSAVVSFSSCDSESNDNFLLATYRCQADTTRLELKIRSIEGQYGTLQAYVTPRIQPKTCQVRQYHIKPLSLHQRTHFIDHDRPMNTLTLTGQFSFAEVHSWVVFCLPEVPEKPPAGECVTFYFQNTFLDTQLESTYRKGEGVFKSDNISTISILKDVLSKEATKRKINLNISYEINEVSVKHTLKLIHPKLEYQLLLAKKVQLIDALKELQIHEGNTNFLIPEYHCILEEADHLQEEYKKQPAHLERLYG
partner: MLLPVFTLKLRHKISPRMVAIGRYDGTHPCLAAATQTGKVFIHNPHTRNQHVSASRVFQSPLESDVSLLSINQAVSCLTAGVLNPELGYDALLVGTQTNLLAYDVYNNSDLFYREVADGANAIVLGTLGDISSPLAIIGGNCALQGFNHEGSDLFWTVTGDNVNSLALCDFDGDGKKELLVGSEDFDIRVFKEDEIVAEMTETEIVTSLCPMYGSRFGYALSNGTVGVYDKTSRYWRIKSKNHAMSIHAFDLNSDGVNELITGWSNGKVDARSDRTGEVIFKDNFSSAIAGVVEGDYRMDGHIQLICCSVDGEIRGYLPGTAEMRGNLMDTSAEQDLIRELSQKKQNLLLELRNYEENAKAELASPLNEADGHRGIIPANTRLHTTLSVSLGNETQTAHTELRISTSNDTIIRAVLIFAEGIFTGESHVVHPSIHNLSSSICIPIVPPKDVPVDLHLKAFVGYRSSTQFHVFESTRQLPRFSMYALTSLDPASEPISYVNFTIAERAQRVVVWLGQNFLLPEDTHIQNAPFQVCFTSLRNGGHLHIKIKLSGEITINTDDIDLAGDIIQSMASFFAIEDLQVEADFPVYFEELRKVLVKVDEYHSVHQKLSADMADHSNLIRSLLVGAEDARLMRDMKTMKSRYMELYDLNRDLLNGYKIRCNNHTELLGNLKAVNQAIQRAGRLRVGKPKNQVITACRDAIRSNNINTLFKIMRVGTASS

Variants of: B1
Conditions: with bbs2_human BBS2, Q9BXC9

effect of a mutation on the interaction	Variant
with no effect	T402K
with no effect	T402A
with no effect	T402E
with no effect	P414A
with no effect	P414E
with no effect	P414K
with no effect	I409K
with no effect	I409E
with no effect	I409A
with no effect	V407K
with no effect	V407A
with no effect	V407E
with no effect	D419A
with no effect	D419K
with no effect	D419E
with no effect	L408E
with no effect	L408K
with no effect	L408A
with no effect	L417A
with no effect	L417E
with no effect	L417K
with no effect	D421A
with no effect	V413K
with no effect	V413E

effect of a mutation on the interaction	Variant
with no effect	V413A
with no effect	I404A
with no effect	I404K
with no effect	I404E
with no effect	D391K
with no effect	D391A
with no effect	D391E
with no effect	I415E
with no effect	I415K
with no effect	I415A
with no effect	L398K
with no effect	L398E
with no effect	L398A
with no effect	Y394A
with no effect	Y394E
with no effect	Y394K
with no effect	I397A
with no effect	I397E
with no effect	I397K
with no effect	S393E
with no effect	S393A
with no effect	S393K
with no effect	V420K
with no effect	V420E

effect of a mutation on the interaction	Variant
with no effect	V420A
with no effect	L418K
with no effect	L418E
with no effect	L418A
with no effect	D390E
with no effect	D390A
with no effect	D390K
with no effect	Q410E
with no effect	Q410A
with no effect	Q410K
with no effect	A392K
with no effect	A392E
with no effect	Q401E
with no effect	Q401A
with no effect	Q401K
with no effect	V400A
with no effect	V400E
with no effect	V400K
with no effect	S395E
with no effect	S395K
with no effect	S395A
disrupting interaction strength	E399V
with no effect	E399A
with no effect	E399K

effect of a mutation on the interaction	Variant
with no effect	S411K
with no effect	S411A
with no effect	S411E
with no effect	A403E
with no effect	A403K
with no effect	D416A
with no effect	D416K
with no effect	D416E
with no effect	D405K
with no effect	D405A
with no effect	D405E
with no effect	N406A
with no effect	N406E
with no effect	N406K
with no effect	D412K
with no effect	D412A
with no effect	D412E
with no effect	L396A
with no effect	L396K
with no effect	L396E
disrupting interaction strength	L396P

Source: IntAct's records for PubMed 29039417
